The subject of one series is HepG2 liver cancer cells. Put plainly: Cell morphology of HepG2 cells with NGLY1 knockdown. The series is classed as cell-based.
Another series relates to SK-MEL-2 tumors. The series is described as follows: Xenograft tumor model with SK-MEL-2 cells carrying inducible shRNA. It counts as in vivo, mice. An excerpt:
(FIG. 14A) A schematic illustration of animal study design to test the in vivo antitumor efficacy of NGLY1 suppression in melanoma. (FIG. 14B) The volume changes of xenograted SK-MEL-2 tumors with the induction of NT-shRNA (n=10) and NGLY1-shRNA645 (n=8) for 35 days. Tumors were harvested at the end of the study for Western blotting analysis. Bars: median tumor volumes at the indicated time points. […] (FIG. 14C) The expression of NGLY1, GADD153, IRF3, and GFP (ZsGreen) proteins in selected tumors was analyzed by Western blotting. (FIG. 14D) The enhanced expression of IL-29 in the tumor tissues with NGLY1 knockdown was detected by immunofluorescence staining.
Six-week-old female NOD.CB17-Prkdc^scid/J mice (The Jackson Laboratory, Bar Harbor, ME) were group-housed under conditions of constant photoperiod (12 hours light: 12 hours dark) with ad libitum access to sterilized food and water. Since the animal work in this study was completed using an animal study service provided by the translational core laboratory at the University of Maryland, Baltimore, all experimental procedures and protocols utilizing mice were approved by the Institutional Animal Care and Use Committee at the University of Maryland. […] Tumors were measured weekly using calipers and their volumes calculated using a standard formula: width^2×length×0.52. Body weights were measured weekly. […]

In the next series the test system is NGLY1. The series is described as follows: NGLY1 expression in stable clones of melanoma cells (immunoblotting). The series is classed as cell-based, human. The settings on record: stable clones of MALME3M, UACC257 and SK-MEL-2 cells, 48-hour treatment of dox. An excerpt: These NGLY1-targeting shRNA sequences and a scrambled (non-targeting) shRNA sequence were cloned into doxycycline (dox)-inducible, polycistronic green fluorescence protein (GFP)-shRNA expression constructs (a pZIP inducible lentiviral vector, TransOMIC). Stable clones have been generated with the shRNA expression constructs in multiple human melanoma cell lines, including MALME3M, UACC257, SK-MEL-2, and COLO829 melanoma cells. […] Similar knockdown effects were found in the stable clones of other melanoma cells with this particular NGLY1 shRNA sequence. […] Similar to human normal fibroblasts, normal melanocytes (FIG. 5D) and keratinocytes appeared to well tolerate NGLY1 knockdown and show no sign of increased cell death. In addition, SK-MEL-2, MALME3M cells that express inducible NGLY1 shRNA presented significant apoptosis, compared to their scrambled RNA-expressing counterparts. The expression of exogenous human NGLY1 in melanoma cells attenuated NGLY1-targeting shRNA-induced apoptosis (FIG. 5E).
(§1) The knockdown of NGLY1 expression in melanoma cells was achieved by the transduction of pZIP-TRE3GS lentiviral expression vectors that carry two independent shRNA sequences (Below; TransOMIC Technologies, Huntsville, AL). […] The expression of the shRNA sequences and an open reading frame of the ZsGreen reporter is driven by the TRE3GS doxycycline-inducible promoter. […]
For orientation: Immunoblotting shows a protein as a band on a membrane.

For a further series, the system named is UACC257 cells. The series is described as follows: Cell morphology of UACC257 stable clones with dox-inducible shRNA. It counts as cell-based, human. Conditions: 2 μM dox for 72 hours. The method, then:
(FIG. 5A) The doxycycline (dox)-inducible pZIP-TRE3GS expression vector of non-targeting shRNA and NGLY1-targeting shRNA sequences. (FIG. 5B) The stable clones of UACC257 cells with dox-inducible shRNA. […] Cells with induced non-targeting (scramble)-shRNA maintain a morphology similar to the cells before dox induction. Cells were imaged after the treatment of 2 μM dox for 72 hours. BF: bright field. ZsGreen: green fluorescence protein. […] (FIG. 5E) The expression of human NGLY1-FLAG in SK-MEL-2 (SK) cells attenuates NGLY1-targeting shRNA-induced apoptosis. EV: empty vector, NGLY1-F: NGLY1-FLAG expression vector. […] All data were presented as mean±standard deviation (n=3, *P<0.05, […]). […] The cell viability curves of combinatorial treatment were plotted according to the doses of dox used in the treatment. Combination indexes were calculated using Calcusyn software. A combination index value <1 was considered synergistic. A combination index value <0.2 was considered highly synergistic. […]
as §1

The test system of series [1] is U-251MG glioblastoma cells. Put plainly: Cell morphology of U-251MG cells with NGLY1 knockdown. The series is classed as cell-based.

B1: NGLY1-shRNA645: NGLY1-targeting shRNA sequence (SEQ ID NO: 5), dox-inducible lentiviral vector; used in the xenograft study (nucleic acid)
DNA: CCGAGUUUCAAAUAACAAUCAAUAGUGAAGCCACAGAUGUAUUGAUUGUUAUUUGAAACUCGAU
Consider B1, for which the cell morphology entry is given as “morphology of apoptosis” in the series with HepG2 liver cancer cells, “morphological features of apoptosis” in the series with UACC257 cells and “morphology of apoptosis” in series [1]. Also, the “tumors that showed regression at the end of the study” value in the series with SK-MEL-2 tumors (after size increase during the initial 3-4 weeks of dox treatment) is “three out of eight”. Besides, the “growth of melanoma tumors” value with SK-MEL-2 tumors (dox-induced knockdown, 5 weeks) is recorded as “impeded”. In addition, in the series with NGLY1, the “expression of NGLY1” value is “largely suppressed”.

These data come from patent publication US11779592B2, “Inhibition of NGLY1 for the treatment of cancer” (University of North Texas Health Science Center, priority 2017, dated 2023).
